# Biological target: full-length dengue virus serotype 1 (DENV1) NS1 (dengue virus serotype 1 (DENV1))
# Experiment: crystal structure
substance,measurement,value
full-length dengue virus serotype 1 (DENV1) NS1 (natural protein),stoichiometry N,2

# Reference: paper PMC8000976
